Where a chain is given by its changes, count along the chain named.
B1: MOR13763 (antibody, human IgG1, kappa, V domains shown)
VH: QVQLVQSGAEVKKPGESLKISCKGSGYSFTSYWVAWVRQMPGKGLEWMGIIYPGQSDTIYSPSFQGQVTISADKSISTAYLQWSSLKASDTAMYYCARVHIIQPPSAWSYNAMDVWGQGTLVTVSS
VL: DIQMTQSPSSLSASVGDRVTITCRASQSISTYLNWYQQKPGKAPKLLIFGASNLQSGVPSRFSGSGSGTDFTLTISSLQPEDFATYYCQQSITELFTFGQGTKVEIKR
notes: tested as IgG
B2: MOR13755 (antibody, human IgG1, kappa, V domains shown)
VH: B1 VH with S31T
VL: B1 VL
notes: tested as IgG
B3: MOR13750 (antibody, human IgG1, kappa, V domains shown)
VH: B1 VH with Y32S, Q55G
VL: B1 VL
notes: tested as IgG
B4: MOR13758 (antibody, human IgG1, kappa, V domains shown)
VH: B1 VH with S31L
VL: B1 VL
notes: tested as IgG
B5: MOR13766 (antibody, human IgG1, kappa, V domains shown)
VH: B1 VH with S31T, Y32T, Q55S
VL: B1 VL
notes: tested as IgG
B6: MOR13759 (antibody, human IgG1, kappa, V domains shown)
VH: B1 VH with S31T, Y32T, Q55L
VL: B1 VL
notes: tested as IgG
B7: MOR13762 (antibody, human IgG1, kappa, V domains shown)
VH: B1 VH with S31N, Y32T
VL: B1 VL
notes: tested as IgG

Experiments:
[1] = molecular target: T1, Human HER3, endogenous, on human cancer cell lines (SK-Br-3, MCF7, BT-474) (human, UniProt P21860 20-1342); experiment: cell-based or functional assay
[2] = molecular target: T1, Human HER3, endogenous, on human cancer …; experiment: cell-based or functional assay; remark: listed apart in the source
[3] = molecular target: T2, Hu HER3: CD33-[Human HER3, residues 20-640]-TAG (human, UniProt P21860 20-640); experiment: SET, IgG vs soluble HER3-Tag
T2 construct: also called hu HER3-Tag; HER3-Tag; not shown: C-terminal TAG (e.g., FLAG TAG)
Experimental: Affinity determination in solution was essentially performed as previously described (Friguet et al., (1985) J Immunol Methods 77:305-19). In order to improve the sensitivity and accuracy of the SET method, it was transferred from classical ELISA to ECL based technology (Haenel et al., (2005) Anal Biochem 339:182-84).
The data was evaluated with XLfit software (ID Business Solutions) applying customized fitting models.
Antibody affinity was determined by solution equilibrium titration (SET) as described above. The results are summarized in Table 3 and example titration curves for MOR12616 and MOR12925 are contained in FIG. 1.

[4] = molecular target: T1, Human HER3, endogenous, on human cancer …; experiment: cell-based or functional assay; remark: listed apart in the source

T1 sequence (P21860 20-1342): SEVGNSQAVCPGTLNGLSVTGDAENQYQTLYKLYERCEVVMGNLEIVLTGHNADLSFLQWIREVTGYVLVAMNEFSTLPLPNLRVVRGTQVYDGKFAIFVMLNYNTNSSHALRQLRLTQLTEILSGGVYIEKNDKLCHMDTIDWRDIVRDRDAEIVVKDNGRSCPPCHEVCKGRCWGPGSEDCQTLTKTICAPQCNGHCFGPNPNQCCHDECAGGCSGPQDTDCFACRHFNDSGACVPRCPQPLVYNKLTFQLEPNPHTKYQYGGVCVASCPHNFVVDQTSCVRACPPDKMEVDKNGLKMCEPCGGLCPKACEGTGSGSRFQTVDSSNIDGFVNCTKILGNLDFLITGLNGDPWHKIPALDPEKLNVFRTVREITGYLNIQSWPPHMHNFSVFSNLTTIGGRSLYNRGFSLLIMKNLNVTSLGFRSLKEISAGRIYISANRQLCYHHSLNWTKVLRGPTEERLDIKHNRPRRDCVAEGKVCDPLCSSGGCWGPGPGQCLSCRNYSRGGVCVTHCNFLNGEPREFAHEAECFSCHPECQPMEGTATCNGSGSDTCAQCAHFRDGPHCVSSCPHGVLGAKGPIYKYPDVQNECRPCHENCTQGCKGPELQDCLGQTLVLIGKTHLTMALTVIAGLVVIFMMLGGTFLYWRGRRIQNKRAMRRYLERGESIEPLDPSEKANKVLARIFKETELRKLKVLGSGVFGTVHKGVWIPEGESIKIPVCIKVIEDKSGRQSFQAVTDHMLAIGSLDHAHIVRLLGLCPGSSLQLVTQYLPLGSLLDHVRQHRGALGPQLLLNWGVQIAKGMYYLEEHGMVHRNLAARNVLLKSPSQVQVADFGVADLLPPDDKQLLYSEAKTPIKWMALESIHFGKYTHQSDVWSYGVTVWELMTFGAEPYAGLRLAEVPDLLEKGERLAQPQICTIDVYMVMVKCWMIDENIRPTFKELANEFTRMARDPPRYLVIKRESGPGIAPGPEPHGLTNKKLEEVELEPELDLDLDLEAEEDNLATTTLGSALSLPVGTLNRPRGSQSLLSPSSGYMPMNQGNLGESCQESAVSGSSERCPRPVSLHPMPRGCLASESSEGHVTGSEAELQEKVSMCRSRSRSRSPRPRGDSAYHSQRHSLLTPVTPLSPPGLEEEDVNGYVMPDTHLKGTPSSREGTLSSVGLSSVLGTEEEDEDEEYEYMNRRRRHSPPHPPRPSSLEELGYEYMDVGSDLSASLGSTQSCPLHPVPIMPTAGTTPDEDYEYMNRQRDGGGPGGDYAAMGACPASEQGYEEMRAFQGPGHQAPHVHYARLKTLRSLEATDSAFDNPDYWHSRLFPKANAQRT
T2 sequence (P21860 20-640): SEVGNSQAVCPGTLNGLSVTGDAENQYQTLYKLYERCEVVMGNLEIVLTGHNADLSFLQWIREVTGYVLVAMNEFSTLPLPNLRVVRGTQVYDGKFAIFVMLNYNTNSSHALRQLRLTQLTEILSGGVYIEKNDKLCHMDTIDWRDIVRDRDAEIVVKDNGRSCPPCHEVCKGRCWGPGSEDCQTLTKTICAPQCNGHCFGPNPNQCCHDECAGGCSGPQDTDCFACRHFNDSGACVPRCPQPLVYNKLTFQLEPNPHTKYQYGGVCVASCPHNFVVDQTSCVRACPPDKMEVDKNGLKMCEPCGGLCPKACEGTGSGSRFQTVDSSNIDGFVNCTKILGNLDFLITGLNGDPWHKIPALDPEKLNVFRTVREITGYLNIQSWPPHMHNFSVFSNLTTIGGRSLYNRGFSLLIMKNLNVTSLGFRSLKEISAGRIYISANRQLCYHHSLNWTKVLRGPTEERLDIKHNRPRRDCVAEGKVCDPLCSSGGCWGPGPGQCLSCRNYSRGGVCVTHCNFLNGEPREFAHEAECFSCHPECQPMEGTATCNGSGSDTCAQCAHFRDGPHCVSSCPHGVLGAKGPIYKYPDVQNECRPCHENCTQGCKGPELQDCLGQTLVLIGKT

Row | Binder | BT474 pHER3 % inhibition [1] | BT474 pHER3 IC50 [1] | SK-Br-3 pHER3 % inhibition [1] | SK-Br-3 pHER3 IC50 [1] | BT-474 proliferation % inhibition [2] | BT-474 proliferation IC50 [2] | SK-Br-3 proliferation % inhibition [2] | SK-Br-3 proliferation IC50 [2] | Kd [3] | BT-474 pAkt (S473) % inhibition [4] | BT-474 pAkt (S473) IC50 [4] | SK-Br-3 pAkt (S473) % inhibition [4] | SK-Br-3 pAkt (S473) IC50 [4] | MCF7 pHER3 % inhibition [1] | MCF7 pHER3 IC50 [1] | MCF7 pAkt (S473) % inhibition [4] | MCF7 pAkt (S473) IC50 [4] | MCF7 proliferation % inhibition [2] | MCF7 proliferation IC50 [2]
1 | B1 | 60% | 19500 pM | 77% | 107 pM | 36% | 0.671 nM | 49% | 0.326 nM | 0.027 nM | 76% | 378 pM | 84% | 76 pM |  |  |  |  |  | 
2 | B2 | 73% | 657 pM | 80% | 217 pM | 41% | 0.738 nM | 52% | 0.207 nM | 0.024 nM | 79% | 645 pM | 91% | 131 pM | 79% | 331 pM | 79% | 468 pM |  | 
3 | B3 | 44% | 6680 pM | 60% | 1440 pM | 21% | 13.8 nM | 34% | 5.47 nM | 0.16 nM | 60% | 17800 pM | 83% | 1640 pM |  |  |  |  |  | 
4 | B4 | 67% | 382 pM | 77% | 91 pM | 38% | 0.516 nM | 47% | 0.133 nM | 0.021 nM | 78% | 371 pM | 90% | 110 pM |  |  |  |  |  | 
5 | B5 | 62% | 708 pM | 79% | 106 pM | 37% | 2.56 nM | 45% | 2.35 nM | 0.054 nM | 75% | 1190 pM | 91% | 89 pM | 72% | 354 pM | 67% | 296 pM | 53% | 
6 | B6 | 70% | 431 pM | 77% | 124 pM | 35% | 6.26 nM | 41% | 0.23 nM | 0.051 nM | 81% | 274 pM | 91% | 60 pM | 74% | 277 pM | 76% | 248 pM | 49% | 0.151 nM
7 | B7 | 41% | 271 pM | 70% | 90 pM | 37% | 0.546 nM | 45% | 0.053 nM | 0.025 nM | 86% | 291 pM | 86% | 63 pM |  |  |  |  |  | 

Reference: patent US20130273029A1 (Novartis, published 2013)
